pIC50, pKd: −log10 of the molar value.
Assays:
[1] = biological target: HLA-B*58:01; experiment: IEDB peptide-MHC binding, purified MHC/competitive/fluorescence; filed as Kd, often an IC50 or EC50 that approximates it; ≥ and ≤ were set here for values at or beyond the usual limits of such assays
[2] = biological target: HLA-B*15:01; experiment: IEDB peptide-MHC binding, purified MHC/direct/fluorescence; filed as Kd, often an IC50 or EC50 that approximates it; ≥ and ≤ were set here for values at or beyond the usual limits of such assays
[3] = biological target: HLA-B*40:01; experiment: IEDB peptide-MHC binding, purified MHC/competitive/fluorescence; filed as Kd, often an IC50 or EC50 that approximates it; ≥ and ≤ were set here for values at or beyond the usual limits of such assays
[4] = biological target: HLA-B*39:01; experiment: as above
[5] = biological target: HLA-A*11:01; experiment: IEDB peptide-MHC binding, purified MHC/competitive/fluorescence; ≥ and ≤ were set here for values at or beyond the usual limits of such assays; settings: source organism: Zaire ebolavirus
[6] = biological target: HLA-A*03:01; experiment: as above; settings: source organism: Zaire ebolavirus
[7] = biological target: HLA-A*02:01; experiment: as above
[8] = biological target: HLA-B*15:01; experiment: as above
[9] = biological target: HLA-A*69:01; experiment: IEDB peptide-MHC binding, purified MHC/direct/fluorescence; filed as Kd, often an IC50 or EC50 that approximates it; ≥ and ≤ were set here for values at or beyond the usual limits of such assays
[10] = biological target: HLA-A*31:01; experiment: as above
[11] = biological target: HLA-A*26:01; experiment: as above
[12] = biological target: HLA-A*01:01; experiment: as above
[13] = biological target: HLA-A*30:01; experiment: as above
[14] = biological target: HLA-A*24:03; experiment: as above
[15] = biological target: HLA-B*58:01; experiment: as above
[16] = biological target: HLA-B*40:01; experiment: as above
[17] = biological target: HLA-B*27:05; experiment: as above
[18] = biological target: HLA-B*07:02; experiment: as above
[19] = biological target: HLA-A*11:01; experiment: as above
[20] = biological target: HLA-A*03:01; experiment: as above
[21] = biological target: HLA-B*08:01; experiment: as above
[22] = biological target: HLA-A*02:01; experiment: as above
[23] = biological target: HLA-B*44:02; experiment: as above
[24] = biological target: HLA-A*24:02; experiment: IEDB peptide-MHC binding, purified MHC/competitive/fluorescence; ≥ and ≤ were set here for values at or beyond the usual limits of such assays; settings: source organism: Zaire ebolavirus
[25] = biological target: HLA-B*35:01; experiment: IEDB peptide-MHC binding, purified MHC/direct/fluorescence; filed as Kd, often an IC50 or EC50 that approximates it; ≥ and ≤ were set here for values at or beyond the usual limits of such assays
[26] = biological target: HLA-A*23:01; experiment: as above; settings: source organism: Orthohantavirus hantanense
[27] = biological target: HLA-C*15:02; experiment: as above
[28] = biological target: HLA-B*15:17; experiment: as above
[29] = biological target: HLA-B*57:01; experiment: as above; settings: source organism: Campylobacter jejuni RM1221
[30] = biological target: HLA-A*01:01; experiment: IEDB peptide-MHC binding, purified MHC/competitive/fluorescence; filed as Kd, often an IC50 or EC50 that approximates it; ≥ and ≤ were set here for values at or beyond the usual limits of such assays; settings: source organism: Encephalitozoon cuniculi GB-M1
[31] = biological target: HLA-A*30:01; experiment: as above; settings: source organism: Encephalitozoon cuniculi GB-M1
[32] = source organism: Escherichia coli 101-1
[33] = source organism: Zaire ebolavirus
[34] = source organism: Salmonella enterica subsp. enterica serovar Typhi
[35] = source organism: Vibrio parahaemolyticus
[36] = source organism: Giardia lamblia ATCC 50803
[37] = source organism: Pseudomonas savastanoi
[38] = source organism: Pseudomonas aeruginosa
[39] = source organism: Vibrio cholerae
[40] = source organism: Corynebacterium glutamicum
[41] = source organism: Campylobacter jejuni RM1221
[42] = source organism: Campylobacter jejuni
[43] = source organism: Vaccinia virus
[44] = source organism: Vibrio vulnificus

IASLTGWQW
pKd ([1]; source organism: Mycobacterium tuberculosis variant bovis BCG str. Pasteur 1173P2): 9.22 | pKd ([2]; source organism: Mycobacterium tuberculosis str. Haarlem): 4.80

FEANALSVI
pKd [3, 32]: 8.01 | pKd [4, 32]: 5.42

AALSSLAKH
pIC50 [5]: 5.04 | pIC50 [6]: ≤ 4.03 | pIC50 [7, 33]: ≤ 4.01 | pIC50 [8, 33]: ≤ 3.81

HEAEYNLSL
pKd [3, 34]: 8.34 | pKd [4, 34]: 8.72

RTHTLRDAK
pKd [9, 35]: ≤ 4.70 | pKd [10, 35]: 6.87 | pKd [11, 35]: ≤ 4.70 | pKd [12, 35]: ≤ 4.70 | pKd [13, 35]: 7.68 | pKd [14, 35]: 6.33 | pKd [15, 35]: ≤ 4.70 | pKd [16, 35]: ≤ 4.70 | pKd [17, 35]: ≤ 4.70 | pKd [18, 35]: ≤ 4.70 | pKd [19, 35]: 7.27 | pKd [20, 35]: 6.03 | pKd [21, 35]: ≤ 4.70 | pKd [22, 35]: ≤ 4.70

VETYVLSII
pKd ([3]; source organism: Influenza A virus (A/parakeet/Chiba/1/97(H9N2))): 7.89

AIPYFYKGK
pKd [9, 36]: ≤ 4.70 | pKd [11, 36]: ≤ 4.70 | pKd [12, 36]: ≤ 4.70 | pKd [13, 36]: 4.90 | pKd [14, 36]: 4.89 | pKd [15, 36]: ≤ 4.70 | pKd [23, 36]: ≤ 4.70 | pKd [16, 36]: ≤ 4.70 | pKd [17, 36]: ≤ 4.70 | pKd [18, 36]: ≤ 4.70 | pKd [19, 36]: 6.51 | pKd [20, 36]: ≤ 4.70 | pKd [21, 36]: ≤ 4.70 | pKd [22, 36]: ≤ 4.70 | pKd [2, 36]: ≤ 4.70

TYYPQVVLG
pKd [9, 37]: ≤ 4.70 | pKd [12, 37]: ≤ 4.70 | pKd [13, 38]: ≤ 5.00 | pKd [14, 38]: 5.49 | pKd [15, 38]: 5.16 | pKd [16, 37]: ≤ 4.70 | pKd [17, 37]: ≤ 4.70 | pKd [18, 37]: ≤ 4.70 | pKd [19, 38]: 5.29 | pKd [20, 37]: ≤ 4.70 | pKd [21, 37]: ≤ 4.70 | pKd [22, 37]: ≤ 4.70 | pKd [2, 38]: ≤ 4.70

RATTELRTF
pIC50 [24]: 6.22 | pIC50 [8, 33]: 4.26

GEVRGYLVK
pKd ([3]; source organism: Escherichia coli O139:H28 str. E24377A): ≤ 4.70

IELITTIGF
pKd ([3]; source organism: Bacillus cereus 03BB102): 7.27

IPISGRITA
pKd [9, 39]: ≤ 4.70 | pKd [10, 39]: ≤ 4.70 | pKd [25, 39]: 7.76 | pKd [11, 39]: ≤ 4.70 | pKd [12, 39]: ≤ 4.70 | pKd [13, 39]: ≤ 4.70 | pKd [14, 39]: ≤ 4.70 | pKd [15, 39]: ≤ 4.70 | pKd [23, 39]: ≤ 4.70 | pKd [16, 39]: ≤ 4.70 | pKd [17, 39]: ≤ 4.70 | pKd [18, 39]: 7.61 | pKd [19, 39]: ≤ 4.70 | pKd [20, 39]: ≤ 4.70 | pKd [21, 39]: ≤ 4.70 | pKd [22, 39]: ≤ 4.70 | pKd [2, 39]: ≤ 4.70

YELLRYNEY
pKd [9, 40]: ≤ 4.70 | pKd [10, 40]: ≤ 4.70 | pKd [25, 40]: 6.11 | pKd [11, 40]: ≤ 4.70 | pKd [12, 40]: ≤ 4.70 | pKd [13, 40]: ≤ 4.70 | pKd [14, 40]: ≤ 4.70 | pKd [15, 40]: ≤ 4.70 | pKd [16, 40]: 4.85 | pKd [17, 40]: ≤ 4.70 | pKd [19, 40]: ≤ 4.70 | pKd [20, 40]: ≤ 4.70 | pKd [21, 40]: ≤ 4.70 | pKd [22, 40]: ≤ 4.70 | pKd [2, 40]: 6.35

RTRFFCIPK
pKd [9, 36]: ≤ 4.70 | pKd [10, 36]: 7.74 | pKd [11, 36]: ≤ 4.70 | pKd [12, 36]: ≤ 4.70 | pKd [13, 36]: 8.86 | pKd [14, 36]: ≤ 4.70 | pKd [15, 36]: ≤ 4.70 | pKd [23, 36]: ≤ 4.70 | pKd [16, 36]: ≤ 4.70 | pKd [17, 36]: 6.49 | pKd [18, 36]: ≤ 4.70 | pKd [19, 36]: 7.68 | pKd [20, 36]: 7.56 | pKd [21, 36]: ≤ 4.70 | pKd [22, 36]: 4.76 | pKd [2, 36]: ≤ 5.00

FFQNETQKY
pKd [26]: 5.85 | pKd ([14]; source organism: Orthohantavirus hantanense): 5.89

KSNEKNMDF
pKd [9, 41]: ≤ 4.70 | pKd [10, 41]: ≤ 4.70 | pKd [25, 42]: 5.50 | pKd [11, 41]: ≤ 4.70 | pKd ([27]; source organism: Campylobacter jejuni subsp. jejuni NCTC 11168 = ATCC 700819): 6.82 | pKd [15, 42]: 7.20 | pKd [23, 41]: ≤ 4.70 | pKd [16, 41]: ≤ 4.70 | pKd [17, 41]: ≤ 4.70 | pKd [18, 41]: ≤ 4.70 | pKd [19, 41]: ≤ 4.70 | pKd [20, 41]: ≤ 4.70 | pKd [21, 41]: ≤ 4.70 | pKd [22, 41]: ≤ 4.70 | pKd [28, 41]: 8.14 | pKd [29]: 6.33 | pKd [2, 42]: 6.67

ITASKDLCF
pKd [9, 36]: ≤ 4.70 | pKd [10, 36]: ≤ 4.70 | pKd [25, 36]: 6.44 | pKd [11, 36]: ≤ 4.70 | pKd [12, 36]: 5.06 | pKd [27, 36]: 5.41 | pKd [15, 36]: 6.36 | pKd [23, 36]: ≤ 4.70 | pKd [16, 36]: ≤ 4.70 | pKd [17, 36]: ≤ 4.70 | pKd [18, 36]: ≤ 4.70 | pKd [19, 36]: ≤ 4.70 | pKd [20, 36]: ≤ 4.70 | pKd [21, 36]: ≤ 4.70 | pKd [22, 36]: ≤ 4.70 | pKd [28, 36]: 8.55 | pKd [2, 36]: 6.52

SQYVDDANL
pIC50 [7, 43]: 4.34 | pIC50 [8, 43]: ≤ 3.39

MSLMTGEQF
pKd ([1]; source organism: Bacillus anthracis str. A0488): 7.78

GGRKLKLTK
pKd [30]: ≤ 4.70 | pKd [31]: 6.61

KVMALPIPH
pKd [9, 44]: ≤ 4.70 | pKd [10, 44]: 6.87 | pKd [25, 44]: 6.43 | pKd [11, 44]: ≤ 4.70 | pKd [12, 44]: ≤ 4.70 | pKd [13, 44]: 5.28 | pKd [14, 44]: ≤ 4.70 | pKd [15, 44]: ≤ 4.70 | pKd [23, 44]: ≤ 4.70 | pKd [16, 44]: ≤ 4.70 | pKd [17, 44]: ≤ 4.70 | pKd [18, 44]: 5.03 | pKd [19, 44]: 7.61 | pKd [20, 44]: 6.76 | pKd [21, 44]: ≤ 4.70 | pKd [22, 44]: ≤ 4.70 | pKd [2, 44]: 6.35

GEMLVATSL
pKd ([3]; source organism: Yersinia pestis Nepal516): 8.38

QLIIQAFEA
pIC50 [7, 33]: 6.05 | pIC50 [8, 33]: ≤ 3.14

From the Immune Epitope Database (IEDB)
